According to publication PMC13345917, “EasyGrid: a versatile platform for automated cryo-EM sample preparation and quality control” (Nature Methods, 2026):

Biological target: the molecule itself
Assay: cryo-EM structure; single-particle analysis of KR2 rhodopsin in 50 mM Tris-HCl pH 8.0, 0.1 M NaCl, 0.03% DDM; grids made with EasyGrid at 4 °C; non-symmetrised ab initio model, then refinement with imposed C5 symmetry

B1: KR2 rhodopsin (NaR gene from Krokinobacter eikastus) (natural protein)
chain: MTQELGNANFENFIGATEGFSEIAYQFTSHILTLGYAVMLAGLLYFILTIKNVDKKFQMSNILSAVVMVSAFLLLYAQAQNWTSSFTFNEEVGRYFLDPSGDLFNNGYRYLNWLIDVPMLLFQILFVVSLTTSKFSSVRNQFWFSGAMMIITGYIGQFYEVSNLTAFLVWGAISSAFFFHILWVMKKVINEGKEGISPAGQKILSNIWILFLISWTLYPGAYLMPYLTGVDGFLYSEDGVMARQLVYTIADVSSKVIYGVLLGNLAITLSKNKELVEANS
notes: KR2 rhodopsin, NaR gene from Krokinobacter eikastus, codon-optimised for E. coli; also called KR2 bacterial rhodopsin; source: E. coli C41, pET15b, purified in DDM (Ni-NTA, Superdex 200 Increase)
stoichiometry N: 5
